Data set [1] deals with PNA-induced glycopeptide bundle in DPPC bilayer membrane. In words: QCM binding isotherm, PNA-induced glycopeptide bundle. The conditions noted are these: QCM method. The text has this:
(§1) We determined binding amounts of proteins to the induced glycopeptide bundles by QCM measurements. […] The molecular weights of PNA and ConA were 98,000 [27] and […] [33], respectively, assuming that they formed tetramers.
We attempted quantitative analysis of the binding isotherms obtained from the QCM and electrochemical measurements. The curves in Figure 5 and Figure 7 were obtained by curve-fitting the experimental values using the Langmuir binding isotherm. It can be seen that both curves are in good agreement with the experimental values. […] In the electrochemical measurement, the value of ΔI corresponds to the amount of the closed channel in the formed complex between the protein and glycopeptide bundle that acted as an ion channel. ΔImax corresponds to the total channel amount. Therefore, we used ΔI and ΔImax as the binding amount and saturated binding amount, respectively, for the Langmuir binding isotherm.
(§2) For the binding isotherm parameters obtained by the QCM measurements, the saturated binding amount, Wmax, for the protein used to induce the glycopeptide bundle was slightly larger, but a systematic relationship could not be seen in the binding constants, K. However, in the parameters obtained from the electrochemical method, the binding constant, K, to the target protein used to induce the glycopeptide bundle acting as a channel, was higher than that of other proteins, and the ΔImax value corresponding to the saturated binding amount was also remarkably larger. In addition, the selective detection of the target protein to the DPPC bilayer membrane with the target protein-induced glycopeptide bundle was evaluated from the ratio to the saturated binding amounts of other proteins. For example, the value of the selectivity of PNA to ConA, of 1.34, in the QCM method of the PNA-induced sensing membrane was obtained from Wmax, PNA/Wmax, ConA.
We previously reported that heating a vesicle containing a peptide above its gel–liquid crystal transition temperature, Tc, increases the fluidity of the lipid bilayer membrane and allows the peptide to easily diffuse laterally through the membrane. At this time, if a protein that specifically interacts with the sugar chains at the terminal of the glycopeptides is present, the glycopeptides are re-arranged in the membrane, and form specific binding site to the target protein on the glycopeptide bundle. The target protein was added to aqueous solution containing DPPC vesicle with glycopeptides and a spacer peptide in the bilayer membrane. The molar ratio of the added protein to the glycopeptides was 2. The Tc of DPPC is 41 °C [41]. The vesicle solution was incubated at 60 °C above Tc for 15 min to form a glycopeptide bundle. […]

Data set [2] relates to ConA-induced glycopeptide bundle in DPPC bilayer membrane. Kind of data set: QCM binding isotherm, ConA-induced glycopeptide bundle. The conditions noted are these: QCM method, Langmuir fit, 25 °C.
Text: as §1
We attempted quantitative analysis of the binding isotherms obtained from the QCM and electrochemical measurements. The curves in Figure 5 and Figure 7 were obtained by curve-fitting the experimental values using the Langmuir binding isotherm. It can be seen that both curves are in good agreement with the experimental values. […]
as §2, with “For example, the value of the selectivity of PNA to ConA, of 1.34, in the QCM method of the PNA-induced sensing membrane was obtained from Wmax, PNA/Wmax, ConA.” left out

Data set [3] has as its system PNA-induced glycopeptide bundle in DPPC bilayer membrane. The format is binding. The conditions noted are these: Electrochemical method.
Text: The response current waves were very similar to those derived according to Equation (7) based on the equivalent circuit in Figure A2. The equivalent circuit was a parallel circuit consisting of a capacitor (DPPC bilayer membrane; Cmemb), a resistor (glycopeptide bundle not bound to the target protein as an open channel; Ropen), the serial circuit of a capacitor (bound target protein on glycopeptide bundle; Cprotein), and a resistor (target protein bound to the glycopeptide bundle as a closed channel; Rclose). First, we verified whether the electrochemical properties of the DPPC bilayer membrane with a target protein-induced glycopeptide bundle could be expressed by the proposed equivalent circuit. […] The sensing membrane was used containing the PNA-induced glycopeptide bundle, and the added protein was PNA. In the simulation, the resistances, Ropen = 6.00 × 10^4 Ω and Rclose = 1.73 × 10^4 Ω, and capacitances, Cmemb = 1.00 × 10^−6 F and Cprotein = 3.00 × 10^−6 F, were held constant. Furthermore, x (=ΔI/ΔImax) was calculated from the ratio of the current changes, ΔI (Figure A4), between before and after the protein was added at peak voltage applied, and the saturated current changes, ΔImax (Table 2); this is described below.
(§3) We attempted to detect the protein using the sensing membrane using the electrochemical method. From the simulation, the value of the increase in the current before and after protein addition at the peak voltage, ΔI, was proportional to the fraction of the closed channel that is protein bound glycopeptide bundle (Figure A4).
We attempted quantitative analysis of the binding isotherms obtained from the QCM and electrochemical measurements. The curves in Figure 5 and Figure 7 were obtained by curve-fitting the experimental values using the Langmuir binding isotherm. […] In the electrochemical measurement, the value of ΔI corresponds to the amount of the closed channel in the formed complex between the protein and glycopeptide bundle that acted as an ion channel. ΔImax corresponds to the total channel amount. Therefore, we used ΔI and ΔImax as the binding amount and saturated binding amount, respectively, for the Langmuir binding isotherm [36].
The test system of data set [4] is ConA-induced glycopeptide bundle in DPPC bilayer membrane. Kind of data set: Electrochemical detection (peak current response, channel blockage), ConA-induced glycopeptide bundle. The conditions noted are these: Electrochemical method, Langmuir fit, ±5 mV triangular voltage, 11.24 Hz, 0.1 M HEPES-Tris pH 7.4, 0.1 M KCl. The class given is binding.
Text: as §3
The curves in Figure 5 and Figure 7 were obtained by curve-fitting the experimental values using the Langmuir binding isotherm. […] In the electrochemical measurement, the value of ΔI corresponds to the amount of the closed channel in the formed complex between the protein and glycopeptide bundle that acted as an ion channel. ΔImax corresponds to the total channel amount. Therefore, we used ΔI and ΔImax as the binding amount and saturated binding amount, respectively, for the Langmuir binding isotherm [36].
At this time, if a protein that specifically interacts with the sugar chains at the terminal of the glycopeptides is present, the glycopeptides are re-arranged in the membrane, and form specific binding site to the target protein on the glycopeptide bundle. The target protein was added to aqueous solution containing DPPC vesicle with glycopeptides and a spacer peptide in the bilayer membrane. The molar ratio of the added protein to the glycopeptides was 2. […] The vesicle solution was incubated at 60 °C above Tc for 15 min to form a glycopeptide bundle. […]
For data set [5] the following is noted: cited from earlier work. The text has this:
This implies that the proteins with the same sugar binding sites can be selectively recognized if their 3D-structures are different. […] The PNA-induced glycopeptide bundle has a spatial arrangement of galactose corresponded to its binding sites in PNA. Two ... || We used PNA (Wako Pure Chemical Industrials, Ltd., Osaka, Japan) and ConA (CALBIOCHEM, San Diego, CA, USA) as the target proteins.

[6] abbreviates: PNA-induced glycopeptide bundle in DPPC bilayer, Langmuir fit, 25 °C.
Where [7] appears, read: PNA-induced bundle, ratio of ΔImax.
Where [8] appears, read: PNA-induced glycopeptide bundle in DPPC bilayer, Langmuir fit, ±5 mV triangular voltage, 11.24 Hz, 0.1 M HEPES-Tris pH 7.4, 0.1 M KCl.

Entries after “also recorded” stand apart in the source; their conditions may differ. Read-outs that look alike come from different tables or passages of the source.

The source of these data is PMC7795492, “Protein Sensing Device with Multi-Recognition Ability Composed of Self-Organized Glycopeptide Bundle” (International Journal of Molecular Sciences, 2020).

B1: PNA: peanut lectin with specific binding site for galactose (protein, UniProt P02872 24-273, looked up)
Galactose-binding lectin: AETVSFNFNSFSEGNPAINFQGDVTVLSNGNIQLTNLNKVNSVGRVLYAMPVRIWSSATGNVASFLTSFSFEMKDIKDYDPADGIIFFIAPEDTQIPAGSIGGGTLGVSDTKGAGHFVGVEFDTYSNSEYNDPPTDHVGIDVNSVDSVKTVPWNSVSGAVVKVTVIYDSSTKTLSVAVTNDNGDITTIAQVVDLKAKLPERVKFGFSASGSLGGRQIHLIRSWSFTSTLITTTRRSIDNNEKKIMNMASA
For B1, the “Selectivity of PNA to BSA” value in data set [1] (PNA-induced bundle, ratio of Wmax) was determined as 2.47; in data set [3] (setting [7]), 17.8. The “Binding preference in QCM (in words)” value in data set [1] (PNA-induced glycopeptide bundle) is “preferentially bound”. In addition, the “Binding constant, K” value in data set [1] (setting [6]) is 8.2e+08 M⁻¹; in data set [2], 9.5e+08 M⁻¹; in data set [3] (setting [8]), 2.1e+09 M⁻¹; in data set [4], 1.1e+09 M⁻¹. The “Saturated binding amount, Wmax” value in data set [1] (setting [6]) is on record as 0.47 ng; in data set [2] it was 0.21 ng. In addition, the “Selectivity of PNA to ConA” value in data set [3] (setting [7]) came out at 9.53. Moreover, the “Saturated current change, ΔImax” value in data set [3] (setting [8]) amounted to 0.41 μA; in data set [4] it was 0.035 μA. In addition, the “Current response / recognition (in words)” value in data set [3] (PNA-induced sensing membrane) is “specific response; also recorded: very large current responses”. The Sugar binding specificity entry in data set [5] is on record as “specific binding sites for galactose”.
